In PMC6646387, “Identification of intracellular cavin target proteins reveals cavin-PP1alpha interactions regulate apoptosis” (Nature Communications, 2019):

B1: mCherry-Cavin3 (natural protein, mouse, UniProt Q91VJ2 1-260, looked up)
chain: MGESALEPGPVPETPAGGPVHAVTVVTLLEKLATMLEALRERQGGLAERQGGLAGSVRRIQSGLGALSRSHDTTSNTLTQLLAKAERVGSHADAAQERAVRRAAQVQRLEANHGLLVARGKLHVLLFKEETEIPARAFQKVPELLGPEDQLVLGPDQPEDEVGESSEEEPVESRAQRLRRTGLQKVQSLKRALSSRKAAQPTPVKPPRVGPVRSSEGPSEGQPAAQPEMESELETALEPEPPQPTKEDPEKPVLQIESAA
notes: Murine Cavin-3 (PRKCDBP), amplified from NIH-3T3 fibroblast cDNA, in an mCherry vector; also called mCherry-tagged Cavin3; source: MCF-7, transfected, in lysate (cytosolic or PNS fraction)
B2: mCherry-Cavin1 (natural protein, mouse, UniProt O54724 1-392, looked up)
chain: MEDVTLHIVERPYSGFPDASSEGPEPTQGEARATEEPSGTGSDELIKSDQVNGVLVLSLLDKIIGAVDQIQLTQAQLEERQAEMEGAVQSIQGELSKLGKAHATTSNTVSKLLEKVRKVSVNVKTVRGSLERQAGQIKKLEVNEAELLRRRNFKVMIYQDEVKLPAKLSVSKSLKESEALPEKEGDELGEGERPEDDTAAIELSSDEAVEVEEVIEESRAERIKRSGLRRVDDFKKAFSKEKMEKTKVRTRENLEKTRLKTKENLEKTRHTLEKRMNKLGTRLVPVERREKLKTSRDKLRKSFTPDHVVYARSKTAVYKVPPFTFHVKKIREGEVEVLKATEMVEVGPEDDEVGAERGEATDLLRGSSPDVHTLLEITEESDAVLVDKSDSD
notes: Murine Cavin-1 (PTRF, caveolae-associated protein 1); oligomeric in MCF-7 cells by burst brightness; also called mCherry-tagged Cavin1; source: MCF-7, transfected, in lysate (cytosolic or PNS fraction)

Target: T1, GFP-PP1α (UniProt P62136 1-330)
T1 construct: serine/threonine-protein phosphatase PP1alpha catalytic subunit (PP1α); construct provided by the Trinkle-Mulcahy Laboratory; printed both as GFP-PP1α and PP1α-GFP; also called PP1α-GFP; PP1alpha-GFP; source: MCF-7 or A431, transfected, in lysate
Assay: single-molecule coincidence detection; PNS fraction of MCF-7 cells cotransfected with GFP-PP1α and Cherry-Cavin1 or Cherry-Cavin3, in PBS, diluted to about 1 nM; two-colour confocal detection; C = mCherry/(GFP+mCherry); oligomeric state from burst brightness
Conditions: partners not purified

T1 sequence (P62136 whole entry): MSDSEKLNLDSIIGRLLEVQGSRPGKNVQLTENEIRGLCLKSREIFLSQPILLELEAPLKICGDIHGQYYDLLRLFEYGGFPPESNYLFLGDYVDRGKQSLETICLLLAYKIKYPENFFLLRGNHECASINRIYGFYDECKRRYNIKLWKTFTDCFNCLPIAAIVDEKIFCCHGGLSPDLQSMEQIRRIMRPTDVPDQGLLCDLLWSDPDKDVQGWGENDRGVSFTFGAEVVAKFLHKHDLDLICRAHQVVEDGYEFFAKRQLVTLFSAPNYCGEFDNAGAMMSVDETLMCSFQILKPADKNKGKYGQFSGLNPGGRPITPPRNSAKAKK

Row | Binder | coincidence ratio | stoichiometry N
1 | B1 | 0.5 | 1
2 | B2 | 0.7 | 
